Laboratory results from the supplement of paper PMC11246515.
± gives the standard deviation of the averaged measurements.

Assay: total protein half-life in vivo (active degradation + dilution); higher = more stable protein
[1] = E. coli NCM3722 delta-lon, growth: N-lim chemostat, doubling time 6 h
[2] = E. coli NCM3722 delta-smpB, growth: N-lim chemostat, doubling time 6 h
[3] = wild type E. coli NCM3722, growth: C-lim chemostat, doubling time 3 h
[4] = wild type E. coli NCM3722, growth: C-lim chemostat, doubling time 6 h
[5] = wild type E. coli NCM3722, growth: C-lim chemostat, doubling time 12 h
[6] = wild type E. coli NCM3722, growth: P-lim chemostat, doubling time 6 h
[7] = wild type E. coli NCM3722, growth: P-lim chemostat, doubling time 12 h
[8] = E. coli NCM3722 delta-clpP delta-lon delta-hslV, growth: N-lim chemostat, doubling time 6 h
[9] = E. coli NCM3722 delta-clpP, growth: N-lim chemostat, doubling time 6 h
[10] = E. coli NCM3722 delta-hslV, growth: N-lim chemostat, doubling time 6 h
[11] = wild type E. coli NCM3722, growth: N-lim chemostat, doubling time 6 h
[12] = wild type E. coli NCM3722, growth: N-lim chemostat, doubling time 12 h

Sequence | total protein half-life in vivo [1] [h] | total protein half-life in vivo [2] [h] | total protein half-life in vivo [3] [h] | total protein half-life in vivo [4] [h] | total protein half-life in vivo [5] [h] | total protein half-life in vivo [6] [h] | total protein half-life in vivo [7] [h] | total protein half-life in vivo [8] [h] | total protein half-life in vivo [9] [h] | total protein half-life in vivo [10] [h] | total protein half-life in vivo [11] [h] | total protein half-life in vivo [12] [h]
MPTKMRTTRNLLLMATLLGSALFARAAEKEMTIGAIYLDTQGYYAGVRQGVQDAAKDSSVQVQLIETNAQGDISKESTFVDTLVARNVDAIILSAVSENGSSRTVRRASEAGIPVICYNTCINQKGVDKYVSAYLVGDPLEFGKKLGNAAADYFIANKIDQPKIAVINCEAFEVCVQRRKGFEEVLKSRVPGAQIVANQEGTVLDKAISVGEKLIISTPDLNAIMGESGGATLGAVKAVRNQNQAGKIAVFGSDMTTEIAQELENNQVLKAVVDISGKKMGNAVFAQTLKVINKQADGEKVIQVPIDLYTKTEDGKQWLATHVDGLP | > 8 | 5.48 ± 2.3 | 3.51 ± 0.069 | 6.18 ± 0.59 | 10.2 ± 0.31 | > 8 | 13.19 ± 0.1 |  |  |  |  | 
MPQQIELRNIALQAAQPLVHGVSLTLQRGRVLALVGGSGSGKSLTCAATLGILPAGVRQTAGEILADGKPVSPCALRGIKIATIMQNPRSAFNPLHTMHTHARETCLALGKPADDATLTAAIEAVGLENAARVLKLYPFEMSGGMLQRMMIAMAVLCESPFIIADEPTTDLDVVAQARILDLLESIMQKQAPGMLLVTHDMGVVARLADDVAVMSDGKIVEQGDVETLFNAPKHTVTRSLVSAHLALYGMELAS |  |  |  |  |  |  |  | 4.47 |  |  |  | 
MKMTKLATLFLTATLSLASGAALAADSGAQTNNGQANAAADAGQVAPDARENVAPNNVDNNGVNTGSGGTMLHSDGSSMNNDGMTKDEEHKNTMCKDGRCPDINKKVQTGDGINNDVDTKTDGTTQ [P0AAV6] | 6.63 ± 0.59 | 3.73 ± 1.6 | 1.7 | 5.24 | 4.86 | 5.84 | 10.2 ± 1.1 | 4.05 | 4.92 ± 2.1 | 5.44 ± 0.35 | 4.78 | 10.7 ± 3.5
MSEQNNTEMTFQIQRIYTKDISFEAPNAPHVFQKDWQPEVKLDLDTASSQLADDVYEVVLRVTVTASLGEETAFLCEVQQGGIFSIAGIEGTQMAHCLGAYCPNILFPYARECITSMVSRGTFPQLNLAPVNFDALFMNYLQQQAGEGTEEHQDA [P0AG86] | 6.08 ± 0.59 | 5.16 ± 0.59 | 2.91 ± 0.79 | 7.35 ± 0.53 | 11.2 ± 1.2 |  | 13.8 ± 2.5 | 5.809 ± 0.028 | 5.336 ± 0.019 |  | 5.17 ± 0.34 | 9.15
MNEVVNSGVMNIASLVVSVVVLLIGLILWFFINRASSRTNEQIELLEALLDQQKRQNALLRRLCEANEPEKADKKTVESQKSVEDEDIIRLVAER | 1.45 | 1.31 | 2.6 |  |  | 2.17 | 3.4 ± 1.1 | 3.97 ± 0.73 | 6.38 |  | 1.78 | 
MEKTTTQELLAQAEKICAQRNVRLTPQRLEVLRLMSLQDGAISAYDLLDLLREAEPQAKPPTVYRALDFLLEQGFVHKVESTNSYVLCHLFDQPTHTSAMFICDRCGAVKEECAEGVEDIMHTLAAKMGFALRHNVIEAHGLCAACVEVEACRHPEQCQHDHSVQVKKKPR [P0AC51] | 5.63 ± 0.19 | 4.2 ± 0.9 |  | 3.79 | 9 ± 1.9 | 3.86 ± 0.18 | 8.62 ± 0.42 | 5.27 ± 0.88 | 5.4504 ± 0.0027 | 5.09 | 5.15 | 6.28
MSQETPASTTEAQIKNKRRISPFWLLPFIALMIASWLIWDSYQDRGNTVTIDFMSADGIVPGRTPVRYQGVEVGTVQDISLSDDLRKIEVKVSIKSDMKDALREETQFWLVTPKASLAGVSGLDALVGGNYIGMMPGKGKEQDHFVALDTQPKYRLDNGDLMIHLQAPDLGSLNSGSLVYFRKIPVGKVYDYAINPNKQGVVIDVLIERRFTDLVKKGSRFWNVSGVDANVSISGAKVKLESLAALVNGAIAFDSPEESKPAEAEDTFGLYEDLAHSQRGVIIKLELPSGAGLTADSTPLMYQGLEVGQLTKLDLNPGGKVTGEMTVDPSVVTLLRENTRIELRNPKLSLSDANLSALLTGKTFELVPGDGEPRKEFVVVPGEKALLHEPDVLTLTLTAPESYGIDAGQPLILHGVQVGQVIDRKLTSKGVTFTVAIEPQHRELVKGDSKFVVNSRVDVKVGLDGVEFLGASASEWINGGIRILPGDKGEMKASYPLYANLEKALENSLSDLPTTTVSLSAETLPDVQAGSVVLYRKFEVGEVITVRPRANAFDIDLHIKPEYRNLLTSNSVFWAEGGAKVQLNGSGLTVQASPLSRALKGAISFDNLSGASASQRKGDKRILYASETAARAVGGQITLHAFDAGKLAVGMPIRYLGIDIGQIQTLDLITARNEVQAKAVLYPEYVQTFARGGTRFSVVTPQISAAGVEHLDTILQPYINVEPGRGNPRRDFELQEATITDSRYLDGLSIIVEAPEAGSLGIGTPVLFRGLEVGTVTGMTLGTLSDRVMIAMRISKRYQHLVRNNSVFWLASGYSLDFGLTGGVVKTGTFNQFIRGGIAFATPPGTPLAPKAQEGKHFLLQESEPKEWREWGTALPK | 6.06 ± 0.19 | 6.04 ± 0.27 | 3.01 ± 0.3 |  |  | 6.43 ± 0.74 | 13.5 ± 0.26 | 6.34 ± 0.49 | 6.12 ± 0.52 | 6.516 ± 0.036 | 6.32 ± 0.48 | 13.1 ± 0.76
MEALLQLKGIDKAFPGVKALSGAALNVYPGRVMALVGENGAGKSTMMKVLTGIYTRDAGTLLWLGKETTFTGPKSSQEAGIGIIHQELNLIPQLTIAENIFLGREFVNRFGKIDWKTMYAEADKLLAKLNLRFKSDKLVGDLSIGDQQMVEIAKVLSFESKVIIMDEPTDALTDTETESLFRVIRELKSQGRGIVYISHRMKEIFEICDDVTVFRDGQFIAEREVASLTEDSLIEMMVGRKLEDQYPHLDKAPGDIRLKVDNLCGPGVNDVSFTLRKGEILGVSGLMGAGRTELMKVLYGALPRTSGYVTLDGHEVVTRSPQDGLANGIVYISEDRKRDGLVLGMSVKENMSLTALRYFSRAGGSLKHADEQQAVSDFIRLFNVKTPSMEQAIGLLSGGNQQKVAIARGLMTRPKVLILDEPTRGVDVGAKKEIYQLINQFKADGLSIILVSSEMPEVLGMSDRIIVMHEGHLSGEFTREQATQEVLMAAAVGKLNRVNQE | 5.71 ± 0.28 | 5.878 ± 0.015 | 3.11 ± 0.17 | 6.04 ± 0.086 | 11.3 ± 2.2 | 6.499 ± 0.06 | 12.2 ± 0.6 | 6.58 ± 1.1 | 5.992 ± 0.012 | 6.14 ± 0.13 | 5.96 ± 0.35 | 12.7 ± 0.54
MKIATIKTGLASLAMLPGLVMAAPAVADKADNAFMMICTALVLFMTIPGIALFYGGLIRGKNVLSMLTQVTVTFALVCILWVVYGYSLAFGEGNNFFGNINWLMLKNIELTAVMGSIYQYIHVAFQGSFACITVGLIVGALAERIRFSAVLIFVVVWLTLSYIPIAHMVWGGGLLASHGALDFAGGTVVHINAAIAGLVGAYLIGKRVGFGKEAFKPHNLPMVFTGTAILYIGWFGFNAGSAGTANEIAALAFVNTVVATAAAILGWIFGEWALRGKPSLLGACSGAIAGLVGVTPACGYIGVGGALIIGVVAGLAGLWGVTMLKRLLRVDDPCDVFGVHGVCGIVGCIMTGIFAASSLGGVGFAEGVTMGHQLLVQLESIAITIVWSGVVAFIGYKLADLTVGLRVPEEQEREGLDVNSHGENAYNA | 5.81 ± 2 | 4.6 ± 0.47 |  |  |  |  |  | 5.75 ± 1.4 | 4.24 ± 0.22 | 5.51 ± 1.2 | 4.78 ± 0.62 | 8.59 ± 0.8
MYEALLVVFLIVAIGLVGLIMLQQGKGADMGASFGAGASATLFGSSGSGNFMTRMTALLATLFFIISLVLGNINSNKTNKGSEWENLSAPAKTEQTQPAAPAKPTSDIPN [P0AG99] | 4.58 ± 0.069 | 3.78 ± 0.13 | 2.33 ± 0.097 | 4.91 ± 1.3 | 6.22 ± 0.14 | 3.41 ± 0.17 | 6.12 ± 0.75 | 3.64 ± 0.31 | 3.46 ± 0.55 | 3.996 ± 0.032 | 3.81 ± 0.04 | 4.95
MTEIVADKTVEVVKNAIETADGALDLYNKYLDQVIPWQTFDETIKELSRFKQEYSQAASVLVGDIKTLLMDSQDKYFEATQTVYEWCGVATQLLAAYILLFDEYNEKKASAQKDILIKVLDDGITKLNEAQKSLLVSSQSFNNASGKLLALDSQLTNDFSEKSSYFQSQVDKIRKEAYAGAAAGVVAGPFGLIISYSIAAGVVEGKLIPELKNKLKSVQNFFTTLSNTVKQANKDIDAAKLKLTTEIAAIGEIKTETETTRFYVDYDDLMLSLLKEAAKKMINTCNEYQKRHGKKTLFEVPEV | 3.77 ± 0.13 | 2.84 ± 0.25 | 3.15 ± 0.65 | 4.71 ± 0.94 | 6.71 ± 1.1 | 4.11 ± 0.63 | 7.49 ± 0.36 | 4.51 ± 0.82 | 4.37 ± 0.14 | 3.54 ± 0.068 | 3.2 ± 0.039 | 5.29 ± 0.62
MILSAFSLEGKVAVVTGCDTGLGQGMALGLAQAGCDIVGINIVEPTETIEQVTALGRRFLSLTADLRKIDGIPALLDRAVAEFGHIDILVNNAGLIRREDALEFSEKDWDDVMNLNIKSVFFMSQAAAKHFIAQGNGGKIINIASMLSFQGGIRVPSYTASKSGVMGVTRLMANEWAKHNINVNAIAPGYMATNNTQQLRADEQRSAEILDRIPAGRWGLPSDLMGPIVFLASSASDYVNGYTIAVDGGWLAR | 2.48 ± 0.36 | 2.31 ± 0.11 | 2.75 ± 0.077 | 4.15 ± 0.16 | 7.26 ± 0.34 | 5.03 ± 0.081 | 10.5 ± 0.36 | 3.57 ± 0.82 | 2.06 ± 0.13 | 2.8 ± 0.69 | 2.385 ± 0.018 | 3.87 ± 0.81
